Article PMC5379939

Key:
EYFP-ELKS1(771–976) = experiment: FRET or BRET
GST-ELKS1(771–976) = experiment: pull-down; conditions: scale: GST-ELKS1(771–976) per MBP-bMunc13-2(1–305)

Substance | fold of the FRET value of cells coexpressing soluble ECFP and EYFP (EYFP-ELKS1(771–976)) | normalized FRET value (EYFP-ELKS1(771–976)) | stoichiometry N (GST-ELKS1(771–976))
ECFP-bMunc13-2(70–204) (domain or fragment) | 7 fold | 0.07 | –
MBP-bMunc13-2(1–305) (domain or fragment) | – | – | 1.69
